This note sets out measurements from patent US20110086029A1 (University of California, published 2011).

The target in this experiment is T1, murine N-Cadherin (murine, UniProt P15116 160-724, limits assumed).
T1 construct: The assay used to show cross-reactivity is not described
T1 sequence (looked up): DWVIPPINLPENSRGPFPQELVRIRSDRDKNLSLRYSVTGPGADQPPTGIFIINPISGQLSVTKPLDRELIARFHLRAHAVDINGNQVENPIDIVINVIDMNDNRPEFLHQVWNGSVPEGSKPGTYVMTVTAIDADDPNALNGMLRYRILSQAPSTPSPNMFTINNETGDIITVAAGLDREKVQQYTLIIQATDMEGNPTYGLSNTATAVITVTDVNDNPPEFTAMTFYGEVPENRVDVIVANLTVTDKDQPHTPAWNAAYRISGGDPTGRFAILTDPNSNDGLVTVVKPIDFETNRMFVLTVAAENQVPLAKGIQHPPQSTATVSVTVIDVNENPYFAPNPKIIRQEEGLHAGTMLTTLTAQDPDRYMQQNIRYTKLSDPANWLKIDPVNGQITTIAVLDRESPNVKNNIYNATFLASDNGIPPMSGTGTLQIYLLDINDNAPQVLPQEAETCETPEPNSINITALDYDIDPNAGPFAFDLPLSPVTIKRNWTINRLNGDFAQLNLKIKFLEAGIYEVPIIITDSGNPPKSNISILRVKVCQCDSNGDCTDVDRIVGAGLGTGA
The experiment is described as follows: assay not described.

B1: N-Cadherin antibody EC4 (monoclonal antibody produced by mouse hybridoma ATCC Accession No. PTA-9388) (antibody, V domains shown)
VH: QVKLQQSGAELARPGASVKLSCKASGYTFTSYWMQWVKQRPGQGLEWIGAIYPGDGETTYTQKFKGKATLTADKSSSTAYMQLSSLASEDSAVYYCAKGDGYWAMDYWGQGTSVTVSS
VL: DIVMTQTPLSLPVSLGDQASISCRSSQSLVHSNGNTYLHWYLQKPGQSPKLLIYKVSNRFSGVPDRFSGSGSGTDFTLKISRVEAEDLGVYFCSQSTHVPLTFGAGTKLELK
notes: Mouse hybridoma monoclonal antibody
For the molecule B1, the binding result was “binds”.

B2: N-Cadherin antibody 1H7 (monoclonal antibody produced by mouse hybridoma ATCC Accession No. PTA-9387) (antibody, V domains shown)
VH: QVQLQQSGAELVKPGASVKLSCKASGFTFTDYLIQWVKQRSGQGLEWIGWFYPGSGSIKYNEKFKDKATLTADKSSNTVYMEISRLTSEDSAVYFCARRGDWGGFFDYWGQGTTLTVSS
VL: DIVLTQSPAIMSASLGERVTMTCTASSSVSSSYLHWYQQKPGSSPKLWIFSTSNLASGVPDRFSGSGSGTSYSLTINSMEAEDAATYYCHQYHRSLTFGAGTKLELK
notes: as for B1
With B2, the binding result is “binds”.
